Experimental data as given in publication PMC8171077.

Experiments:
[1] = FITC-FA fluorescence microscopy of stable cell lines, 24 h; conditions: glycan lost; control: FOLR1 WT stable cells
[2] = qRT-PCR and label-free quantitative proteomics of FOLR1; conditions: glycan changed form; control: matched control stable cells

Protein	other: folate uptake [1]	expression_or_secretion [2]
folate receptor alpha (FOLR1): N69A (protein) parent chain: MAQRMTTQLLLLLVWVAVVGEAQTRIAWARTELLNVCMNAKHHKEKPGPEDKLHEQCRPWRKNACCSTNTSQEAHKDVSYLYRFNWNHCGEMAPACKRHFIQDTCLYECSPNLGPWIQQVDQSWRKERVLNVPLCKEDCEQWWEDCRTSYTCKSNWHKGWNWTSGFNKCAVGAACQPFHFYFPTPTVLCNEIWTHSYKVSNYSRGSGRCIQMWFDPAQGNPNEEVARFYAAAMSGAGPWAAWPFLLSLALMLLWLLS	decreases	
folate receptor alpha (FOLR1): shFUT8 (protein) parent chain: MAQRMTTQLLLLLVWVAVVGEAQTRIAWARTELLNVCMNAKHHKEKPGPEDKLHEQCRPWRKNACCSTNTSQEAHKDVSYLYRFNWNHCGEMAPACKRHFIQDTCLYECSPNLGPWIQQVDQSWRKERVLNVPLCKEDCEQWWEDCRTSYTCKSNWHKGWNWTSGFNKCAVGAACQPFHFYFPTPTVLCNEIWTHSYKVSNYSRGSGRCIQMWFDPAQGNPNEEVARFYAAAMSGAGPWAAWPFLLSLALMLLWLLS		no change
folate receptor alpha (FOLR1): N161A (protein) parent chain: MAQRMTTQLLLLLVWVAVVGEAQTRIAWARTELLNVCMNAKHHKEKPGPEDKLHEQCRPWRKNACCSTNTSQEAHKDVSYLYRFNWNHCGEMAPACKRHFIQDTCLYECSPNLGPWIQQVDQSWRKERVLNVPLCKEDCEQWWEDCRTSYTCKSNWHKGWNWTSGFNKCAVGAACQPFHFYFPTPTVLCNEIWTHSYKVSNYSRGSGRCIQMWFDPAQGNPNEEVARFYAAAMSGAGPWAAWPFLLSLALMLLWLLS	decreases	
folate receptor alpha (FOLR1): N201A (protein) parent chain: MAQRMTTQLLLLLVWVAVVGEAQTRIAWARTELLNVCMNAKHHKEKPGPEDKLHEQCRPWRKNACCSTNTSQEAHKDVSYLYRFNWNHCGEMAPACKRHFIQDTCLYECSPNLGPWIQQVDQSWRKERVLNVPLCKEDCEQWWEDCRTSYTCKSNWHKGWNWTSGFNKCAVGAACQPFHFYFPTPTVLCNEIWTHSYKVSNYSRGSGRCIQMWFDPAQGNPNEEVARFYAAAMSGAGPWAAWPFLLSLALMLLWLLS	decreases	
folate receptor alpha (FOLR1): FUT8 overexpression (protein) parent chain: MAQRMTTQLLLLLVWVAVVGEAQTRIAWARTELLNVCMNAKHHKEKPGPEDKLHEQCRPWRKNACCSTNTSQEAHKDVSYLYRFNWNHCGEMAPACKRHFIQDTCLYECSPNLGPWIQQVDQSWRKERVLNVPLCKEDCEQWWEDCRTSYTCKSNWHKGWNWTSGFNKCAVGAACQPFHFYFPTPTVLCNEIWTHSYKVSNYSRGSGRCIQMWFDPAQGNPNEEVARFYAAAMSGAGPWAAWPFLLSLALMLLWLLS		no change
